From US20240270821A1, “GIP/GLP1/GCG TRI-RECEPTOR AGONISTS AND USES THEREOF” (priority 2023, published 2024)

T1: human GIP receptor (human) (UniProt P48546)
T1 sequence (looked up): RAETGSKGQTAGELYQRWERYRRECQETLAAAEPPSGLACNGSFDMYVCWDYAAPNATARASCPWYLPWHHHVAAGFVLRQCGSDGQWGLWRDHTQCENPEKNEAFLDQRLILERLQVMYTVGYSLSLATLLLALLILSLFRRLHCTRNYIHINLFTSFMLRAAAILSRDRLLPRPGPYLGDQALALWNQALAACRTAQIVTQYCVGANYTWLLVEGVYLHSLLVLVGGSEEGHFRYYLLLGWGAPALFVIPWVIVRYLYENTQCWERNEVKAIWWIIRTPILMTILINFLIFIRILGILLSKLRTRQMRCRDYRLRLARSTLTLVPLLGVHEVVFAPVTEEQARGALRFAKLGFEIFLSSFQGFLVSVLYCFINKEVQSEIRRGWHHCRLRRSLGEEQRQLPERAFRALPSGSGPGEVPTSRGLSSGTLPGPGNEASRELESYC


Assays:
Test in all cases: cell-based or functional assay
[1] = molecular target: T1, human GIP receptor (human)
[2] = molecular target: human glucagon receptor (human) (UniProt P47871)
human glucagon receptor (human), sequence (P47871 26-477): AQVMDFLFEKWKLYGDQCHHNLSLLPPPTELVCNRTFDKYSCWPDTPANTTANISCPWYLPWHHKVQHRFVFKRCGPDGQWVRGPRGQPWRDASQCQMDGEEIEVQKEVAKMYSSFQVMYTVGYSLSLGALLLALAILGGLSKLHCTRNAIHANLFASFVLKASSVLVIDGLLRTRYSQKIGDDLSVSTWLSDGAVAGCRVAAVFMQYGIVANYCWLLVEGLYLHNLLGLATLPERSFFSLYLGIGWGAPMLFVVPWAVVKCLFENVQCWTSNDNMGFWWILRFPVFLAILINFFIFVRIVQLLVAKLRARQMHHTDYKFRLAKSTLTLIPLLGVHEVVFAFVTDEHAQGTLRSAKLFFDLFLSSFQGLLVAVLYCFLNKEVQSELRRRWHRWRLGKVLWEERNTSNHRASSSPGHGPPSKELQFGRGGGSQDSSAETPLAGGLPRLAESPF

[3] = molecular target: hGLP-1R (Homo sapiens, UniProt P43220)
hGLP-1R, sequence (P43220 24-463): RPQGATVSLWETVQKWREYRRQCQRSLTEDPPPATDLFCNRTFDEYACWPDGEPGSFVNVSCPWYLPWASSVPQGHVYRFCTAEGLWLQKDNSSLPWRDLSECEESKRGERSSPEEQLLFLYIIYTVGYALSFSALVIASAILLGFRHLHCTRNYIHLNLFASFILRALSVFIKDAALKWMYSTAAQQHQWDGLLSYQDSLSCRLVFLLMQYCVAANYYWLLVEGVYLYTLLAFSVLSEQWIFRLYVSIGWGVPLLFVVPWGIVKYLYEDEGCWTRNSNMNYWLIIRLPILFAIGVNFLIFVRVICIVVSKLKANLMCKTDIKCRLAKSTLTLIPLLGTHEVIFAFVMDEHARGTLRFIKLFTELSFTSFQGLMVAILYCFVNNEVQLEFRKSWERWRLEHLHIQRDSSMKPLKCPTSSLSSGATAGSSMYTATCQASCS

Row | Binder | cAMP Rel EC50 (1% HSA) [1] [nM] | cAMP Rel EC50 (1% HSA) [2] [nM] | cAMP Rel EC50 (1% HSA) [3] [nM] | Relative cAMP EC50 [1] [nM] | cAMP Rel EC50, nM (in the presence of 1% HSA) [1] [nM] | Relative cAMP EC50 [2] [nM] | cAMP Rel EC50, nM (in the presence of 1% HSA) [2] [nM] | Relative cAMP EC50 [3] [nM] | cAMP Rel EC50, nM (in the presence of 1% HSA) [3] [nM]
1 | YXQGTXTSDXXIXLDXKAQXXFIEXLQEGGPSSGEPPPEGTEE (acyl linker with epsilon-Lys; synthetic construct; SITE 2: note = 2-Aminoisobutyric Acid; SITE 6: note = alpha-methyl-2-fluoro-L-phenylalanine; SITE 10: note = 3-(4-Pyridyl)-L-alanine; SITE 11: note = alpha-methyl-L-serine; SITE 13: note = alpha-methyl-leucine; SITE 16: note = L-ornithine; SITE 17: note = Lysine is chemically mo) [Example 656] | 7.13 | 662 | 119 | – | – | – | – | – | –
2 | YXQGTXTSDXSILLDKKAQXAFIEYLEEGGPSSGAPPPEGTE (synthetic construct; SITE 2: note = 2-Aminoisobutyric Acid; SITE 6: note = alpha-methyl-2-fluoro-L-phenylalanine; SITE 10: note = 3-(4-Pyridyl)-L-alanine; SITE 17: note = Lysine is chemically modified through conjugation of the epsilon-amino group of the Lysine side chain with (gamma-Glu)2-CO-(CH2)1) [Example 659] | 5.75 | 735 | 81.5 | – | – | – | – | – | –
3 | YXQGTXTSDXSILLDKKAQXAFIEYLEEGGPSSGAPPPEGTGE (synthetic construct; SITE 2: note = 2-Aminoisobutyric Acid; SITE 6: note = alpha-methyl-2-fluoro-L-phenylalanine; SITE 10: note = 3-(4-Pyridyl)-L-alanine; SITE 17: note = Lysine is chemically modified through conjugation of the epsilon-amino group of the Lysine side chain with (gamma-Glu)2-CO-(CH2)1) [Example 660] | 4.64 | 455 | 76.9 | – | – | – | – | – | –
4 | YXQGTXTSDXSILLDKKAQXAFIEYLXEGGPSSGAPPPSGTGE (synthetic construct; SITE 2: note = 2-Aminoisobutyric Acid; SITE 6: note = alpha-methyl-2-fluoro-L-phenylalanine; SITE 10: note = 3-(4-Pyridyl)-L-alanine; SITE 17: note = Lysine is chemically modified through conjugation of the epsilon-amino group of the Lysine side chain with (gamma-Glu)2-CO-(CH2)1) [Example 661] | 4.62 | 160 | 50.9 | – | – | – | – | – | –
5 | YXQGTXTSDXSILLDKKAQXAFIEYLEEGGPSSGAPPPSGTGE (synthetic construct; SITE 2: note = 2-Aminoisobutyric Acid; SITE 6: note = alpha-methyl-2-fluoro-L-phenylalanine; SITE 10: note = 3-(4-Pyridyl)-L-alanine; SITE 17: note = Lysine is chemically modified through conjugation of the epsilon-amino group of the Lysine side chain with (2-[2-(2-Amino-ethoxy))) [Example 662] | 4.69 | 561 | 84.5 | – | – | – | – | – | –
6 | YXQGTXTSDXSILLDKKAQXAFIEYLXEGGPSSGAPPPSGTGE (synthetic construct; SITE 2: note = 2-Aminoisobutyric Acid; SITE 6: note = alpha-methyl-2-fluoro-L-phenylalanine; SITE 10: note = 3-(4-Pyridyl)-L-alanine; SITE 17: note = Lysine is chemically modified through conjugation of the epsilon-amino group of the Lysine side chain with (2-[2-(2-Amino-ethoxy))) [Example 663] | 10.2 | 226 | 79 | – | – | – | – | – | –
7 | YXQGTXTSDXSILLDKKAQXAFIEXLEEGGPSSGAPPPSGTGE (synthetic construct; SITE 2: note = 2-Aminoisobutyric Acid; SITE 6: note = alpha-methyl-2-fluoro-L-phenylalanine; SITE 10: note = 3-(4-Pyridyl)-L-alanine; SITE 17: note = Lysine is chemically modified through conjugation of the epsilon-amino group of the Lysine side chain with (gamma-Glu)2-CO-(CH2)1) [Example 664] | 1.18 | 179 | 27.7 | – | – | – | – | – | –
8 | YXQGTXTSDXSILLDXKAQXAFIEXLEEGGPSSGAPPPSGTGE (synthetic construct; SITE 2: note = 2-Aminoisobutyric Acid; SITE 6: note = alpha-methyl-2-fluoro-L-phenylalanine; SITE 10: note = 3-(4-Pyridyl)-L-alanine; SITE 16: note = L-ornithine; SITE 17: note = Lysine is chemically modified through conjugation of the epsilon-amino group of the Lysine side chai) [Example 665] | 2.1 | 285 | 32.8 | – | – | – | – | – | –
9 | YXQGTXTSDXSILLDKKAQXAFIEXLEEGGPSSGAPPPSGSGE (synthetic construct; SITE 2: note = 2-Aminoisobutyric Acid; SITE 6: note = alpha-methyl-2-fluoro-L-phenylalanine; SITE 10: note = 3-(4-Pyridyl)-L-alanine; SITE 17: note = Lysine is chemically modified through conjugation of the epsilon-amino group of the Lysine side chain with (gamma-Glu)2-CO-(CH2)1) [Example 666] | 1.39 | 224 | 32.3 | – | – | – | – | – | –
10 | YXQGTXTSDXSILLDKKAQXAFIEXLEEGGPSSGAPPPSGEGE (synthetic construct; SITE 2: note = 2-Aminoisobutyric Acid; SITE 6: note = alpha-methyl-2-fluoro-L-phenylalanine; SITE 10: note = 3-(4-Pyridyl)-L-alanine; SITE 17: note = Lysine is chemically modified through conjugation of the epsilon-amino group of the Lysine side chain with (gamma-Glu)2-CO-(CH2)1) [Example 667] | 1.46 | 215 | 33 | – | – | – | – | – | –
11 | YXQGTXTSDXSILLDKKAQXAFIEXLEEGGPSSGAPPPSGGGE (synthetic construct; SITE 2: note = 2-Aminoisobutyric Acid; SITE 6: note = alpha-methyl-2-fluoro-L-phenylalanine; SITE 10: note = 3-(4-Pyridyl)-L-alanine; SITE 17: note = Lysine is chemically modified through conjugation of the epsilon-amino group of the Lysine side chain with (gamma-Glu)2-CO-(CH2)1) [Example 668] | 1.69 | 203 | 27.1 | – | – | – | – | – | –
12 | YXQGTFTSDFSXXLDKKAQXAFIEYLLEGGPSSGAPPPGGE (synthetic construct; SITE 2: note = 2-Aminoisobutyric Acid; SITE 12: note = L-ornithine; SITE 13: note = alpha-methyl-leucine; SITE 17: note = Lysine is chemically modified through conjugation of the epsilon-amino group of the Lysine side chain with (2-[2-(2-Amino-ethoxy)-ethoxy]-acetyl)-(gamma-Glu)) [Example 63] | – | – | – | 0.255 | 40.4 | 4.1 | 709 | 4.78 | 348
13 | YXQGTXTSDXSILLDKKAQXAFIEXLEEGGPSSGAPPPSGTGE (synthetic construct; SITE 2: note = 2-Aminoisobutyric Acid; SITE 6: note = alpha-methyl-2-fluoro-L-phenylalanine; SITE 10: note = 3-(4-Pyridyl)-L-alanine; SITE 17: note = Lysine is chemically modified through conjugation of the epsilon-amino group of the Lysine side chain with (2-[2-(2-Amino-ethoxy))) [Example 669] | 1.41 | 173 | 27.3 | – | – | – | – | – | –
14 | YXQGTXTSDXXIXLDXKAAXEFIEXLLEGGPSSGAPPPSGS (synthetic construct; SITE 2: note = 2-Aminoisobutyric Acid; SITE 6: note = alpha-methyl-2-fluoro-L-phenylalanine; SITE 10: note = 3-(4-Pyridyl)-L-alanine; SITE 11: note = alpha-methyl-L-serine; SITE 13: note = alpha-methyl-leucine; SITE 16: note = L-ornithine; SITE 17: note = Lysine is chemically mo) [Example 672] | 1.53 | 162 | 49.4 | – | – | – | – | – | –
15 | YXQGTFTSDFSXXLDKKAQXAFIEYLLEGGPSSGAPPPGGSG (synthetic construct; SITE 2: note = 2-Aminoisobutyric Acid; SITE 12: note = L-ornithine; SITE 13: note = alpha-methyl-leucine; SITE 17: note = Lysine is chemically modified through conjugation of the epsilon-amino group of the Lysine side chain with (2-[2-(2-Amino-ethoxy)-ethoxy]-acetyl)-(gamma-Glu)) [Example 64] | – | – | – | 0.309 | 24.9 | 4.94 | 626 | 4.08 | 397
16 | YXQGTXTSDXSIXLDXKAQXXFIEXLIEGGPSSGEPPPSGE (synthetic construct; SITE 2: note = 2-Aminoisobutyric Acid; SITE 6: note = alpha-methyl-2-fluoro-L-phenylalanine; SITE 10: note = 3-(4-Pyridyl)-L-alanine; SITE 13: note = alpha-methyl-leucine; SITE 16: note = L-ornithine; SITE 17: note = Lysine is chemically modified through conjugation of the epsil) [Example 682] | 0.415 | 127 | 14 | – | – | – | – | – | –
